This passage reports level co-precipitated, percent of that with WT FVII and level co-precipitated in DNJ-treated cells, percent of WT in untreated cells results from paper PMC6625852.

In assay [1] the target is human factor VII N360Q mutant, C-terminal V5 tag (human). The assay can be described thus: co-IP.
Assay [2] deals with human factor VII wild-type, C-terminal V5 tag (human). The assay can be described thus: co-IP.

With “binding immunoglobulin protein (BiP) (from UniProt P11021 19-654) (natural protein)”, the level co-precipitated, percent of that with WT FVII in assay [1] turned out to be 230%.

B1: calnexin (natural protein)
chain: HDGHDDDVIDIEDDLDDVIEEVEDSKPDTTAPPSSPKVTYKAPVPTGEVYFADSFDRGTLSGWILSKAKKDDTDDEIAKYDGKWEVEEMKESKLPGDKGLVLMSRAKHHAISAKLNKPFLFDTKPLIVQYEVNFQNGIECGGAYVKLLSKTPELNLDQFHDKTPYTIMFGPDKCGEDYKLHFIFRHKNPKTGIYEEKHAKRPDADLKTYFTDKKTHLYTLILNPDNSFEILVDQSVVNSGNLLNDMTPPVNPSREIEDPEDRKPEDWDERPKIPDPEAVKPDDWDEDAPAKIPDEEATKPEGWLDDEPEYVPDPDAEKPEDWDEDMDGEWEAPQIANPRCESAPGCGVWQRPVIDNPNYKGKWKPPMIDNPSYQGIWKPRKIPNPDFFEDLEPFRMTPFSAIGLELWSMTSDIFFDNFIICADRRIVDDWANDGWGLKKAADGAAEPGVVGQMIEAAEERPWLWVVYILTVALPVFLVILFCCSGKKQTSGMEYKKTDAPQPDVKEEEEEKEEEKDKGDEEEEGEEKLEEKQKSDAEEDGGTVSQEEEDRKPKAEEDEILNRSPRNRKPRRE
For the molecule B1, the level co-precipitated in DNJ-treated cells, percent of WT in untreated cells in assay [2] turned out to be 129%. Moreover, the level co-precipitated, percent of that with WT FVII in assay [1] is 124%.
